Test results taken from patent publication US20250092124A1 (YUNNAN BAIYAO GROUP, published 2025).

How the values were obtained:
[1] = biological target: T1, GDF15-HIS (ACROBiosystems, CAT #: GD5-H5149) (human, UniProt Q99988 197-308); assay: ELISA, GDF15-HIS coated
T1 construct: Bought protein; also called GDF15 (ACROBiosystems, GD5-H5149); human GDF15; not shown: His tag
T1 sequence (looked up): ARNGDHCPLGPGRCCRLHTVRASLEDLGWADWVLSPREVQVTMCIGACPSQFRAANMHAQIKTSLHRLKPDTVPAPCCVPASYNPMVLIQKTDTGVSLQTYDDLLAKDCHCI
Procedure: The experiment was performed as detailed in Example 2, except that the coating protein was GDF15-HIS (ACROBiosystems, CAT #: GD5-H5149), and the antibodies to be tested (the humanized antibodies), negative control antibody (hIgG1), positive control antibodies Ponsegromab (Pfizer; Drug Bank: D11909) and AV380-hlgG1 (the heavy chain and light chain constant regions of AV380-mIgG1 were replaced with the constant regions of human IgG, i.e., SEQ ID NO. 5 and SEQ ID NO. 6) were added to each well of the coated plate.

[2] = biological target: T1, GDF15-HIS (ACROBiosystems, CAT #: …); assay: cell-based or functional assay
[3] = biological target: T1, GDF15-HIS (ACROBiosystems, CAT #: …); assay: BLI (ForteBio Octet), antibody immobilised, GDF15 200-6.25 nM
[4] = biological target: T1, GDF15-HIS (ACROBiosystems, CAT #: …); assay: ELISA in stability test, antibody after pH 3.6 for 2-4 h; coated antigen not named
Procedure: An appropriate amount of each antibody was taken and adjusted to 5 mg/mL in storage buffer adjusted to pH 3.6 using an ultrafiltration tube. The antibodies were placed at room temperature for 2-4 hours, then protein aggregation was detected using SEC-HPLC, and protein binding activity change was detected by ELISA.

[5] = biological target: T1, GDF15-HIS (ACROBiosystems, CAT #: …); assay: ELISA in stability test, antibody after 40 °C for 2 weeks; coated antigen not named
Procedure: An appropriate amount of each antibody was taken and adjusted to 10 mg/mL, and was placed at 40° C. for 1 and 2 weeks. Protein aggregation was detected using SEC-HPLC, and protein binding activity change was detected by ELISA.

[6] = biological target: T1, GDF15-HIS (ACROBiosystems, CAT #: …); assay: ELISA in stability test, antibody after 5 freeze-thaw cycles; coated antigen not named
Procedure: An appropriate amount of each antibody was taken and adjusted to 10 mg/mL, followed by freezing at −80° C. for 10 min, and placing in an ice-water mixture to slowly thaw. The above procedure was repeated 5 times. Protein aggregation was detected using SEC-HPLC, and protein binding activity change was detected by ELISA.

GDF15-mFC protein = biological target: T2, GDF15-mFC protein (human; mouse, UniProt Q99988 197-308); assay: competitive ELISA, GFRAL-HIS coated (competitor), GDF15-mFc 0.3 µg/ml pre-incubated with antibody
T2 construct: extracellular domain;domain: IgG2a-FC; also called GDF15-mFc fusion protein
T2 sequence (looked up): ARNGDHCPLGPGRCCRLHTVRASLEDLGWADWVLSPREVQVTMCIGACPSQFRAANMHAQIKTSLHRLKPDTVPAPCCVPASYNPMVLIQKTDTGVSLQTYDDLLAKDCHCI
Procedure: GFRAL-HIS protein (ACROBiosystems, GFA-H52H3) was dissolved in PBS at a concentration of […] and was used to coat ELISA 96-well plate one day before blocking the plate with 2% BSA in PBS. 53E5 (hz), and control antibodies Ponsegromab and AV380-hIgG1 were 3.16-fold diluted for 10 gradients with a starting concentration of 20 μg/ml. At the same time, GDF15-mFc protein was added at a final concentration of 0.3 μg/ml. After incubation at room temperature for 1 hour, the mixtures were added to 96-well plate coated with GFRAL-HIS. After incubated at room temperature for 1 hour, the plate was washed and then HRP-anti-mouse IgG was added to the plate. After incubation at room temperature for 1 hour, the HRP enzyme activity (OD450) was detected. The HRP enzyme activity represents the relative amount of GDF15-mFc protein bound to GFRAL. The OD450 values and antibody concentrations were plotted. The dose-effect curve was fitted using the log (agonist) vs. response-variable slope (four-parameter) Logistic model to calculate IC50.

EC50 [1]: 0.0833 µg/mL
OD450.Max [1]: 1.05 OD450
EC50 (read off the curve) of GDF15-His for luciferase induction with 0.1 µg/ml antibody present [2]: ~0.02 µg/mL
Kd [3]: 0.293 nM
koff [3]: 0.000271 s⁻¹
kon [3]: 923000 M⁻¹ s⁻¹
EC50 [4]: 0.0699 µg/mL
EC50 [5]: 0.0573 µg/mL
EC50 [6]: 0.0648 µg/mL
IC50 (GDF15-mFC protein): 0.253 µg/mL
B1: 53E5(hz) (antibody, human IgG1, kappa, V domains shown)
VH: QVQLQESGPGLVKPSETLSLTCTFSGFSLSTSGMGVGWIRQPPGKGLEWLAHILWDDVKRYNPALKSRLTISKDSSKSQISLKLSSVTAADTAVYYCVQMAWDWFAYWGQGTTVTVSS
VL: DIQMTQSPSSLSASVGDRVTITCKASQNVDTNVAWYQQKPGQSPKALIYSASYRSSGVPSRFSGSGSGTDFTLTISSLQPEDFATYYCQQYHSYPTFGQGTRLEIKR
notes: also called S3E5 (hz); humanized antibody 53E5
